B1: VVDSVGGYLY (SEQ ID NO: 195) (peptide)
peptide: VVDSVGGYLY
B2: ESDREELNY (SEQ ID NO: 140) (peptide)
peptide: ESDREELNY
B3: NVDPVQHTY (SEQ ID NO: 432) (peptide)
peptide: NVDPVQHTY
B4: LVDNSIRELQY (SEQ ID NO: 162) (peptide)
peptide: LVDNSIRELQY
B5: NTDPTAPPY (SEQ ID NO: 165) (peptide)
peptide: NTDPTAPPY
B6: TTDIIEKY (SEQ ID NO: 186) (peptide)
peptide: TTDIIEKY
B7: ELDSKVEVLTY (SEQ ID NO: 403) (peptide)
peptide: ELDSKVEVLTY
B8: TSAHPEDSSFY (SEQ ID NO: 184) (peptide)
peptide: TSAHPEDSSFY
B9: LLDISQKNLY (SEQ ID NO: 154) (peptide)
peptide: LLDISQKNLY
B10: FVDKPVAY (SEQ ID NO: 145) (peptide)
peptide: FVDKPVAY
B11: KLDRSVFTAY (SEQ ID NO: 153) (peptide)
peptide: KLDRSVFTAY
B12: ESDVGVVVY (SEQ ID NO: 141) (peptide)
peptide: ESDVGVVVY
B13: NLDQATRVAY (SEQ ID NO: 426) (peptide)
peptide: NLDQATRVAY
B14: TLDAGKFQIY (SEQ ID NO: 439) (peptide)
peptide: TLDAGKFQIY
B15: NTQITDIGRY (SEQ ID NO: 166) (peptide)
peptide: NTQITDIGRY
B16: ATDISRQNEY (SEQ ID NO: 400) (peptide)
peptide: ATDISRQNEY
B17: LVDDGTHGQY (SEQ ID NO: 161) (peptide)
peptide: LVDDGTHGQY
B18: NLDEEKQLLY (SEQ ID NO: 424) (peptide)
peptide: NLDEEKQLLY
B19: YLDIPNPRY (SEQ ID NO: 448) (peptide)
peptide: YLDIPNPRY
B20: TTDTVIRSY (SEQ ID NO: 444) (peptide)
peptide: TTDTVIRSY
B21: HTDSLHLLI (SEQ ID NO: 152) (peptide)
peptide: HTDSLHLLI
B22: HSDLKVGEY (SEQ ID NO: 151) (peptide)
peptide: HSDLKVGEY
B23: DTDSQRLAY (SEQ ID NO: 402) (peptide)
peptide: DTDSQRLAY
B24: ASEQQALHTVQY (SEQ ID NO: 398) (peptide)
peptide: ASEQQALHTVQY
B25: EVAEPSVLFDLY (SEQ ID NO: 142) (peptide)
peptide: EVAEPSVLFDLY
B26: VSDAKLDKY (SEQ ID NO: 188) (peptide)
peptide: VSDAKLDKY
B27: YADTVRPEFY (SEQ ID NO: 197) (peptide)
peptide: YADTVRPEFY
B28: TADGKTYYY (SEQ ID NO: 181) (peptide)
peptide: TADGKTYYY
B29: VTDGINPLIDRY (SEQ ID NO: 190) (peptide)
peptide: VTDGINPLIDRY
B30: LLDSLREQY (SEQ ID NO: 156) (peptide)
peptide: LLDSLREQY
B31: TDYHVRVY (SEQ ID NO: 182) (peptide)
peptide: TDYHVRVY
B32: RTDSCSSAQAQY (SEQ ID NO: 172) (peptide)
peptide: RTDSCSSAQAQY
B33: ECDMAFHIY (SEQ ID NO: 139) (peptide)
peptide: ECDMAFHIY
B34: VVDEDHELIY (SEQ ID NO: 447) (peptide)
peptide: VVDEDHELIY
B35: VTDGSLYEGVAY (SEQ ID NO: 191) (peptide)
peptide: VTDGSLYEGVAY
B36: LTEAVLNRY (SEQ ID NO: 160) (peptide)
peptide: LTEAVLNRY
B37: VLDQGKITEY (SEQ ID NO: 445) (peptide)
peptide: VLDQGKITEY
B38: QSDPGTSVLGY (SEQ ID NO: 167) (peptide)
peptide: QSDPGTSVLGY
B39: FLDSQNLSAY (SEQ ID NO: 144) (peptide)
peptide: FLDSQNLSAY
B40: NSDSSLTLREFY (SEQ ID NO: 163) (peptide)
peptide: NSDSSLTLREFY
B41: LSDPSGPKSY (SEQ ID NO: 418) (peptide)
peptide: LSDPSGPKSY
B42: STDNFNCKY (SEQ ID NO: 438) (peptide)
peptide: STDNFNCKY
B43: TLDENPGVRY (SEQ ID NO: 440) (peptide)
peptide: TLDENPGVRY
B44: FIDYPKKEDY (SEQ ID NO: 143) (peptide)
peptide: FIDYPKKEDY
B45: VADLHLYLY (SEQ ID NO: 187) (peptide)
peptide: VADLHLYLY
B46: SRTINVSNLY (SEQ ID NO: 176) (peptide)
peptide: SRTINVSNLY
B47: VLALVNSTV (SEQ ID NO: 97) (peptide)
peptide: VLALVNSTV
B48: FVIDGFDEL (SEQ ID NO: 86) (peptide)
peptide: FVIDGFDEL
B49: FLKEKVPGI (SEQ ID NO: 99) (peptide)
peptide: FLKEKVPGI
B50: TLYPYQISQL (SEQ ID NO: 87) (peptide)
peptide: TLYPYQISQL
B51: YIDEFQSLV (SEQ ID NO: 85) (peptide)
peptide: YIDEFQSLV
B52: VLPDIETLIGV (SEQ ID NO: 94) (peptide)
peptide: VLPDIETLIGV
B53: FLYYPDPVL (SEQ ID NO: 103) (peptide)
peptide: FLYYPDPVL
B54: YVDINTFRL (SEQ ID NO: 84) (peptide)
peptide: YVDINTFRL
B55: TLQEKILQV (SEQ ID NO: 93) (peptide)
peptide: TLQEKILQV
B56: GMLDIFWGV (SEQ ID NO: 104) (peptide)
peptide: GMLDIFWGV
B57: ITIGVLARV (SEQ ID NO: 95) (peptide)
peptide: ITIGVLARV
B58: VQMVITEAQKV (SEQ ID NO: 88) (peptide)
peptide: VQMVITEAQKV
B59: ILSTTMVTV (SEQ ID NO: 89) (peptide)
peptide: ILSTTMVTV
B60: LLQGAIESV (SEQ ID NO: 107) (peptide)
peptide: LLQGAIESV
B61: SLLTHIPTA (SEQ ID NO: 105) (peptide)
peptide: SLLTHIPTA
B62: HLVGGLHTV (SEQ ID NO: 96) (peptide)
peptide: HLVGGLHTV
B63: SLLEQAIAL (SEQ ID NO: 102) (peptide)
peptide: SLLEQAIAL
B64: FIIDTTYPAYV (SEQ ID NO: 106) (peptide)
peptide: FIIDTTYPAYV
B65: LLLGSIGLLGV (SEQ ID NO: 109) (peptide)
peptide: LLLGSIGLLGV
B66: LLADFQALL (SEQ ID NO: 110) (peptide)
peptide: LLADFQALL
B67: LQSSGLTLLL (SEQ ID NO: 98) (peptide)
peptide: LQSSGLTLLL
B68: RQYPTPFQL (SEQ ID NO: 100) (peptide)
peptide: RQYPTPFQL

Target: T1, HLA-A*01 (human)
T1 construct: MHC monomer made peptide-receptive by UV cleavage of a UV-sensitive ligand; also called peptide-receptive MHC class I monomer
Assay: UV peptide-exchange ELISA; +++ = yield >50%
Source text: Candidate peptides for T cell based therapies according to the present invention were further tested for their MHC binding capacity (affinity). The individual peptide-MHC complexes were produced by UV-ligand exchange, where a UV-sensitive peptide is cleaved upon UV-irradiation, and exchanged with the peptide of interest as analyzed. Only peptide candidates that can effectively bind and stabilize the peptide-receptive MHC molecules prevent dissociation of the MHC complexes. To determine the yield of the exchange reaction, an ELISA was performed based on the detection of the light chain (β2m) of stabilized MHC complexes. The assay was performed as generally described in Rodenko et al. (Rodenko et al., 2006).
96 well MAXISorp plates (NUNC) were coated over night with 2 ug/ml streptavidin in PBS at room temperature, washed 4× and blocked for 1 h at 37° C. in 2% BSA containing blocking buffer. […] Peptide-MHC monomers of the UV-exchange reaction were diluted 100-fold in blocking buffer. Samples were incubated for 1 h at 37° C., washed four times, incubated with 2 ug/ml HRP conjugated anti-β2m for 1h at 37° C., washed again and detected with TMB solution that is stopped with […]. Absorption was measured at 450 nm.

Question: For B1, which peptide exchange yield is on record?
Answer: 50 to 75%

Question: Which peptide exchange yield does the source give for B2 here?
Answer: 50 to 75%

Question: For B3, which peptide exchange yield is on record?
Answer: 50 to 75%

Question: How did the peptide exchange yield turn out when B4 was run?
Answer: 50 to 75%

Question: B5 was tested. Which peptide exchange yield did it give?
Answer: 50 to 75%

Question: How did the peptide exchange yield turn out when B6 was run?
Answer: 50 to 75%

Question: For B7, which peptide exchange yield is on record?
Answer: 50 to 75%

Question: Which peptide exchange yield does the source give for B8 here?
Answer: 50 to 75%

Question: For B9, which peptide exchange yield is on record?
Answer: 50 to 75%

Question: B10 was tested. Which peptide exchange yield did it give?
Answer: 50 to 75%

Question: B11 was tested. Which peptide exchange yield did it give?
Answer: 50 to 75%

Question: For B12, which peptide exchange yield is on record?
Answer: 50 to 75%

Question: With B13 as the binder, how does the peptide exchange yield read?
Answer: 50 to 75%

Question: For B14, which peptide exchange yield is on record?
Answer: 50 to 75%

Question: Which peptide exchange yield does the source give for B15 here?
Answer: 50 to 75%

Question: Which peptide exchange yield does the source give for B16 here?
Answer: 50 to 75%

Question: With B17 as the binder, how does the peptide exchange yield read?
Answer: 50 to 75%

Question: With B18 as the binder, how does the peptide exchange yield read?
Answer: 50 to 75%

Question: With B19 as the binder, how does the peptide exchange yield read?
Answer: 50 to 75%

Question: Which peptide exchange yield does the source give for B20 here?
Answer: 50 to 75%

Question: For B21, which peptide exchange yield is on record?
Answer: 50 to 75%

Question: B22 was tested. Which peptide exchange yield did it give?
Answer: 50 to 75%

Question: Which peptide exchange yield does the source give for B23 here?
Answer: 50 to 75%

Question: For B24, which peptide exchange yield is on record?
Answer: 50 to 75%

Question: How did the peptide exchange yield turn out when B25 was run?
Answer: 50 to 75%

Question: Which peptide exchange yield does the source give for B26 here?
Answer: 50 to 75%

Question: How did the peptide exchange yield turn out when B27 was run?
Answer: 50 to 75%

Question: For B28, which peptide exchange yield is on record?
Answer: 50 to 75%

Question: With B29 as the binder, how does the peptide exchange yield read?
Answer: 50 to 75%

Question: B30 was tested. Which peptide exchange yield did it give?
Answer: 50 to 75%

Question: For B31, which peptide exchange yield is on record?
Answer: 50 to 75%

Question: For B32, which peptide exchange yield is on record?
Answer: 50 to 75%

Question: For B33, which peptide exchange yield is on record?
Answer: 50 to 75%

Question: How did the peptide exchange yield turn out when B34 was run?
Answer: 50 to 75%

Question: B35 was tested. Which peptide exchange yield did it give?
Answer: 50 to 75%

Question: Which peptide exchange yield does the source give for B36 here?
Answer: 50 to 75%

Question: B37 was tested. Which peptide exchange yield did it give?
Answer: 50 to 75%

Question: How did the peptide exchange yield turn out when B38 was run?
Answer: 50 to 75%

Question: How did the peptide exchange yield turn out when B39 was run?
Answer: 50 to 75%

Question: For B40, which peptide exchange yield is on record?
Answer: 50 to 75%

Question: B41 was tested. Which peptide exchange yield did it give?
Answer: 50 to 75%

Question: Which peptide exchange yield does the source give for B42 here?
Answer: 50 to 75%

Question: With B43 as the binder, how does the peptide exchange yield read?
Answer: 50 to 75%

Question: How did the peptide exchange yield turn out when B44 was run?
Answer: 50 to 75%

Question: B45 was tested. Which peptide exchange yield did it give?
Answer: 50 to 75%

Question: For B46, which peptide exchange yield is on record?
Answer: 50 to 75%

Target: T2, HLA-A*02 (human)
T2 construct: MHC monomer made peptide-receptive by UV cleavage of a UV-sensitive ligand; also called peptide-receptive MHC class I monomer
Assay: UV peptide-exchange ELISA; ++++ = yield >75%

Question: Which peptide exchange yield does the source give for B47 here?
Answer: > 75%

Question: With B48 as the binder, how does the peptide exchange yield read?
Answer: > 75%

Question: How did the peptide exchange yield turn out when B49 was run?
Answer: > 75%

Question: For B50, which peptide exchange yield is on record?
Answer: > 75%

Question: B51 was tested. Which peptide exchange yield did it give?
Answer: > 75%

Question: Which peptide exchange yield does the source give for B52 here?
Answer: > 75%

Question: With B53 as the binder, how does the peptide exchange yield read?
Answer: > 75%

Question: How did the peptide exchange yield turn out when B54 was run?
Answer: > 75%

Question: For B55, which peptide exchange yield is on record?
Answer: > 75%

Question: B56 was tested. Which peptide exchange yield did it give?
Answer: > 75%

Question: For B57, which peptide exchange yield is on record?
Answer: > 75%

Question: B58 was tested. Which peptide exchange yield did it give?
Answer: > 75%

Question: With B59 as the binder, how does the peptide exchange yield read?
Answer: > 75%

Question: B60 was tested. Which peptide exchange yield did it give?
Answer: > 75%

Question: Which peptide exchange yield does the source give for B61 here?
Answer: > 75%

Question: Which peptide exchange yield does the source give for B62 here?
Answer: > 75%

Question: B63 was tested. Which peptide exchange yield did it give?
Answer: > 75%

Question: Which peptide exchange yield does the source give for B64 here?
Answer: > 75%

Question: For B65, which peptide exchange yield is on record?
Answer: > 75%

Question: B66 was tested. Which peptide exchange yield did it give?
Answer: > 75%

Question: How did the peptide exchange yield turn out when B67 was run?
Answer: > 75%

Question: For B68, which peptide exchange yield is on record?
Answer: > 75%
